Assay results reported in patent publication US20070003556A1 (published 2007).

Columns and labels:
[1] = target: T1, CD22 (UniProt P20273 20-847, limits assumed); assay: flow cytometry on Raji cells, diabody at 20 ug/mL, detected with anti-Flag M2 antibody and FITC-anti-mouse IgG
T1 construct: whole, on cells; The assays used B-lymphoma cell lines Raji and Daudi, 'which are known to strongly express CD22'; also called CD22 on Raji cells; CD22 on Daudi cells
T1 sequence (looked up): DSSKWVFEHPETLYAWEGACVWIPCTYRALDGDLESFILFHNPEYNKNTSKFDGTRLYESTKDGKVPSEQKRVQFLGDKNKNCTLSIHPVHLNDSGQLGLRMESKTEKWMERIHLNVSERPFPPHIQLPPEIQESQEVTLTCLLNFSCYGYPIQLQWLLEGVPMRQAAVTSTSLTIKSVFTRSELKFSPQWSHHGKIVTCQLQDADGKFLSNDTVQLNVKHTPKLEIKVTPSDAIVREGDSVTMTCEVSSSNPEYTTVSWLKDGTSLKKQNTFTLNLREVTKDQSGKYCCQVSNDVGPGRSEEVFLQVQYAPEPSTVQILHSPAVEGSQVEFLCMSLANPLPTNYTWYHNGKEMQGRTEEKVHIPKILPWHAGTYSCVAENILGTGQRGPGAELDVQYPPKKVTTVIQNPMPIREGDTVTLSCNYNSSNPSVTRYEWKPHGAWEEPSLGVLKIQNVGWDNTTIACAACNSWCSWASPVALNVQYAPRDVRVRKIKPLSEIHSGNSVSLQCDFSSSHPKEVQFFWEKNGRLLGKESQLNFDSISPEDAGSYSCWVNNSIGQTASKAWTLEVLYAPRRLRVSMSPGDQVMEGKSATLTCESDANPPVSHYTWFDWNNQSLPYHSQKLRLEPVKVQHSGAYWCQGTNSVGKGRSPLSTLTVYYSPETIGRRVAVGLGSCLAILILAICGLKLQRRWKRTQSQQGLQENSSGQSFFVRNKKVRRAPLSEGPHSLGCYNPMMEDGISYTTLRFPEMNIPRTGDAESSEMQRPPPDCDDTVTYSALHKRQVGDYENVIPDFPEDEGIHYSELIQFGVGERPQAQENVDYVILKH
Protocol: (§1) Purified LL2 diabody and RFB4 diabody were added to cells of the B-lymphoma cell line, Raji, in PBS containing 2% FCS and 0.02% NaN₃ such that the final concentrations were 20 μg/mL and 8 μg/mL, respectively. After reacting on ice for one hour, anti-Flag M2 antibody was added to the mixture, and then reacted on ice for another one hour. The cells were washed and reacted with FITC-anti-mouse IgG on ice for 30 minutes. Diabody binding to the cell surface was measured by flow cytometry (EPICS ELITE, COULTER).

[2] = target: T1, CD22; assay: flow cytometry on Raji cells, diabody at 8 ug/mL, detected with anti-Flag M2 antibody and FITC-anti-mouse IgG
Protocol: as §1

Binder | binding result [1] | binding result [2]
LL2 diabody (other, Diabody: a non-covalent dimer of two identical VH-(5-mer linker)-VL-Flag fragments; Expressed in DG44 cells and purified on anti-Flag M2 agarose; also called CD22 diabody; LL2 DB) QVQLQESGAELSKPGASVKMSCKASGYTFTSYWLHWIKQRPGQGLEWIGYINPRNDYTEYNQNFKDKATLTADKSSSTAYMQLSSLTSEDSAVYYCARRDITTFYWGQGTTLTVSSGGGGSDIQLTQSPSSLAVSAGENVTMSCKSSQSVLYSANHKNYLAWYQQKPGQSPKLLIYWASTRESGVPDRFTGSGSGTDFTLTISRVQVEDLAIYYCHQYLSSWTFGGGTKLEIKDYKDDDDK | binds | 
RFB4 diabody (other, Diabody: a non-covalent dimer of two identical VH-(5-mer linker)-VL-Flag fragments; Transiently expressed in COS7 cells and purified on anti-Flag M2 agarose; also called CD22 diabody; RFB4 DB) EVQLVESGGGLVKPGGSLKLSCAASGFAFSIYDMSWVRQTPEKRLEWVAYISSGGGTTYYPDTVKGRFTISRDNAKNTLYLQMSSLKSEDTAMYYCARHSGYGSSYGVLFAYWGQGTLVTVSAGGGGSDIQMTQTTSSLSASLGDRVTISCRASQDISNYLNWYQQKPDGTVKLLIYYTSILHSGVPSKFSGSGSGTDYSLTISNLEQEDFATYFCQQGNTLPWTFGGGTKLEIKDYKDDDDK |  | binds
